# Data: the Human Domainome abundance scans (Beltran et al. 2025)
# ± gives the uncertainty stated by the source.
# B1: POU domain, class 6, transcription factor 2, residues 609 to 663; numbered along this chain, P78424 (parent)
# chain: KRRTSFTPQALEILNAHFEKNTHPSGQEMTEIAEKLNYDREVVRVWFCNKRQALK
# Variants of: B1
# Experiment: abundance fitness (aPCA) (normalised: wild type 0, dead -1); higher = more abundant; growth selection in yeast, the domain comes from the species named
# Details: Homo sapiens
row,Variant,abundance fitness
1,KRRTSFTPQALEILNAHFEKNTHPSGQEMTVIAEKLNYDREVVRVWFCNKRQALK [E31V],-0.174 ± 0.12
2,KRRTSFTPQALEILNAHFEKNTHPSGQEMTYIAEKLNYDREVVRVWFCNKRQALK [E31Y],-0.499 ± 0.26
3,KRRTSFTPQALEILNAHFEKNTHPSGQEMTWIAEKLNYDREVVRVWFCNKRQALK [E31W],-0.131 ± 0.18
4,KRRTSFTPQALEILNAHFEKNTHPSGQEMTEIDEKLNYDREVVRVWFCNKRQALK [A33D],-0.669 ± 0.28
5,KRRTSFTPQALEILNAHFEKNTHPSGQEMTEIQEKLNYDREVVRVWFCNKRQALK [A33Q],-0.412 ± 0.28
6,KRRTSFTPQALEILNAHFEKNTHPSGQEMTEIMEKLNYDREVVRVWFCNKRQALK [A33M],-0.477 ± 0.27
7,KRRTSFTPQALEILNAHFEKNTHPSGQEMTEIHEKLNYDREVVRVWFCNKRQALK [A33H],-0.881 ± 0.34
8,KRRTSFTPQALEILNAHFEKNTHPSGQEMTEIREKLNYDREVVRVWFCNKRQALK [A33R],-0.809 ± 0.27
9,KRRTSFTPQALEILNAHFEKNTHPSGQEMTEIVEKLNYDREVVRVWFCNKRQALK [A33V],-0.259 ± 0.12
10,KRRTSFTPQALEILNAHFEKNTHPSGQEMTEISEKLNYDREVVRVWFCNKRQALK [A33S],-0.118 ± 0.46
11,KRRTSFTPQALEILNAHFEKNTHPSGQEMTEIGEKLNYDREVVRVWFCNKRQALK [A33G],-0.248 ± 0.12
12,KRRTSFTPQALEILNAHFEKNTHPSGQEMTEIWEKLNYDREVVRVWFCNKRQALK [A33W],-1.01 ± 0.34
13,KRRTSFTPQALEILNAHFEKNTHPSGQEMTEICEKLNYDREVVRVWFCNKRQALK [A33C],-0.199 ± 0.21
14,KRRTSFTPQALEILNAHFEKNTHPSGQEMTEIARKLNYDREVVRVWFCNKRQALK [E34R],-0.237 ± 0.2
15,KRRTSFTPQALEILNAHFEKNTHPSGQEMTEIADKLNYDREVVRVWFCNKRQALK [E34D],-0.428 ± 0.23
16,KRRTSFTPQALEILNAHFEKNTHPSGQEMTEIASKLNYDREVVRVWFCNKRQALK [E34S],-0.047 ± 0.19
17,KRRTSFTPQALEILNAHFEKNTHPSGQEMTEIAQKLNYDREVVRVWFCNKRQALK [E34Q],-0.194 ± 0.18
18,KRRTSFTPQALEILNAHFEKNTHPSGQEMTEIAMKLNYDREVVRVWFCNKRQALK [E34M],-0.285 ± 0.29
19,KRRTSFTPQALEILNAHFEKNTHPSGQEMTEIATKLNYDREVVRVWFCNKRQALK [E34T],-0.012 ± 0.32
20,KRRTSFTPQALEILNAHFEKNTHPSGQEMTEIACKLNYDREVVRVWFCNKRQALK [E34C],0.127 ± 0.27
21,KRRTSFTPQALEILNAHFEKNTHPSGQEMTEIANKLNYDREVVRVWFCNKRQALK [E34N],-0.531 ± 0.3
22,KRRTSFTPQALEILNAHFEKNTHPSGQEMTEIALKLNYDREVVRVWFCNKRQALK [E34L],-0.024 ± 0.15
23,KRRTSFTPQALEILNAHFEKNTHPSGQEMTEIAGKLNYDREVVRVWFCNKRQALK [E34G],-0.347 ± 0.18
24,KRRTSFTPQALEILNAHFEKNTHPSGQEMTEIAVKLNYDREVVRVWFCNKRQALK [E34V],-0.194 ± 0.15

row,Variant,abundance fitness
1,KRRTSFTPQALEILNAHFEKNTHPSGQEMTENAEKLNYDREVVRVWFCNKRQALK [I32N],-0.838 ± 0.23
2,KRRTSFTPQALEILNAHFEKNTHPSGQEMTEVAEKLNYDREVVRVWFCNKRQALK [I32V],-0.27 ± 0.14
3,KRRTSFTPQALEILNAHFEKNTHPSGQEMTEFAEKLNYDREVVRVWFCNKRQALK [I32F],-0.649 ± 0.32
4,KRRTSFTPQALEILNAHFEKNTHPSGQEMTERAEKLNYDREVVRVWFCNKRQALK [I32R],-0.958 ± 0.26
5,KRRTSFTPQALEILNAHFEKNTHPSGQEMTEGAEKLNYDREVVRVWFCNKRQALK [I32G],-0.705 ± 0.21
6,KRRTSFTPQALEILNAHFEKNTHPSGQEMTESAEKLNYDREVVRVWFCNKRQALK [I32S],-1.07 ± 0.26
7,KRRTSFTPQALEILNAHFEKNTHPSGQEMTEYAEKLNYDREVVRVWFCNKRQALK [I32Y],0.031 ± 0.36
8,KRRTSFTPQALEILNAHFEKNTHPSGQEMTEAAEKLNYDREVVRVWFCNKRQALK [I32A],-0.679 ± 0.45
9,KRRTSFTPQALEILNAHFEKNTHPSGQEMTEDAEKLNYDREVVRVWFCNKRQALK [I32D],-1.16 ± 0.39
10,KRRTSFTPQALEILNAHFEKNTHPSGQEMTEWAEKLNYDREVVRVWFCNKRQALK [I32W],-0.742 ± 0.24
11,KRRTSFTPQALEILNAHFEKNTHPSGQEMTELAEKLNYDREVVRVWFCNKRQALK [I32L],-0.154 ± 0.17
12,KRRTSFTPQALEILNAHFEKNTHPSGQEMTEMAEKLNYDREVVRVWFCNKRQALK [I32M],-0.246 ± 0.28
13,KRRTSFTPQALEILNAHFEKNTHPSGQEMTEIAENLNYDREVVRVWFCNKRQALK [K35N],-0.255 ± 0.21
14,KRRTSFTPQALEILNAHFEKNTHPSGQEMTEIAEGLNYDREVVRVWFCNKRQALK [K35G],-0.087 ± 0.088
15,KRRTSFTPQALEILNAHFEKNTHPSGQEMTEIAEILNYDREVVRVWFCNKRQALK [K35I],-0.167 ± 0.25
16,KRRTSFTPQALEILNAHFEKNTHPSGQEMTEIAEELNYDREVVRVWFCNKRQALK [K35E],-0.154 ± 0.18
17,KRRTSFTPQALEILNAHFEKNTHPSGQEMTEIAEDLNYDREVVRVWFCNKRQALK [K35D],-0.139 ± 0.12
18,KRRTSFTPQALEILNAHFEKNTHPSGQEMTEIAEMLNYDREVVRVWFCNKRQALK [K35M],-0.062 ± 0.11
19,KRRTSFTPQALEILNAHFEKNTHPSGQEMTEIAEFLNYDREVVRVWFCNKRQALK [K35F],-0.194 ± 0.14
20,KRRTSFTPQALEILNAHFEKNTHPSGQEMTEIAEQLNYDREVVRVWFCNKRQALK [K35Q],-0.095 ± 0.22
21,KRRTSFTPQALEILNAHFEKNTHPSGQEMTEIAECLNYDREVVRVWFCNKRQALK [K35C],-0.186 ± 0.12
22,KRRTSFTPQALEILNAHFEKNTHPSGQEMTEIAEHLNYDREVVRVWFCNKRQALK [K35H],-0.221 ± 0.44
23,KRRTSFTPQALEILNAHFEKNTHPSGQEMTEIAEPLNYDREVVRVWFCNKRQALK [K35P],-0.883 ± 0.26
24,KRRTSFTPQALEILNAHFEKNTHPSGQEMTEIAELLNYDREVVRVWFCNKRQALK [K35L],-0.01 ± 0.1
